{"source": "paper doi:10.1101/2024.10.11.617762", "biological_target": "SARS-CoV-2 nucleocapsid C-terminal domain (N-CTD) (SARS-CoV-2, UniProt P0DTC9 247-364)", "experiment": "fluorescence intensity"}
{"binder": "UCUCUAAACG (ssRNA)", "note": "[FAM-labelled 10-mer TRS RNA probe]", "values": [{"measurement": "binding result", "value": "binds"}]}
